Source: patent publication US20230374132A1
Numbering of substitutions follows the chain as printed.

B1: SGN70-sp34.24LH (bispecific antibody, part only; not given: anti-CD70 Fab arm and Fc, not shown: another chain or arm of the molecule; a dimerising Fc or GST; large carriers; small tags and cut ends)
scFv: QAVVTQEPSLTVSPGGTVTLTCRSSTGAVTTSNYANWVQQKPGQAPRGLIGGTNKRAPGVPARFSGSLLGDKAALTLLGAQPEDEAEYYCALWYSNLWVFGQGTKLTVLGGGGSGGGGSGGGGSGGGGSEVQLVESGGGLVQPGGSLKLSCAASGFTFNTYAMNWVRQASGKGLEWVGRIRSKYNNYATYYADSVKDRFTISRDDSKSTLYLQMNSLKTEDTAVYYCARHGNFGQSYVSWFAYWGQGTTVTVSS
B2: SGN70-sp34.80LH (bispecific antibody, part only; not given: anti-CD70 Fab arm and Fc, not shown: another chain or arm of the molecule; a dimerising Fc or GST)
scFv: B1 scFv with Y161A
B3: SGN70-sp34.99LH (bispecific antibody, part only; not given: anti-CD70 Fab arm and Fc, not shown: another chain or arm of the molecule; a dimerising Fc or GST)
scFv: B1 scFv with F233A, G234Y
B4: SGN70-sp34.87LH (bispecific antibody, part only; not given: anti-CD70 Fab arm and Fc, not shown: another chain or arm of the molecule; a dimerising Fc or GST)
scFv: B1 scFv with G231Y
B5: SGN70-sp34.97LH (bispecific antibody, part only; not given: anti-CD70 Fab arm and Fc, not shown: another chain or arm of the molecule; a dimerising Fc or GST)
scFv: B1 scFv with Y184A, N185G, N186G
B6: SGN70-sp34.101LH (bispecific antibody, part only; not given: anti-CD70 Fab arm and Fc, not shown: another chain or arm of the molecule; a dimerising Fc or GST; large carriers)
scFv: B1 scFv with Y237A, V238A
B7: SGN70-sp34.24HL (bispecific antibody, part only; not given: anti-CD70 Fab arm and Fc, not shown: another chain or arm of the molecule; a dimerising Fc or GST; large carriers; small tags and cut ends)
scFv: EVQLVESGGGLVQPGGSLKLSCAASGFTFNTYAMNWVRQASGKGLEWVGRIRSKYNNYATYYADSVKDRFTISRDDSKSTLYLQMNSLKTEDTAVYYCARHGNFGQSYVSWFAYWGQGTTVTVSSGGGGSGGGGSGGGGSGGGGSQAVVTQEPSLTVSPGGTVTLTCRSSTGAVTTSNYANWVQQKPGQAPRGLIGGTNKRAPGVPARFSGSLLGDKAALTLLGAQPEDEAEYYCALWYSNLWVFGQGTKLTVL
B8: SGN70-sp34.87HL (bispecific antibody, part only; not given: anti-CD70 Fab arm and Fc, not shown: another chain or arm of the molecule; a dimerising Fc or GST)
scFv: B7 scFv with G102Y
B9: SGN70-sp34.97HL (bispecific antibody, part only; not given: anti-CD70 Fab arm and Fc, not shown: another chain or arm of the molecule; a dimerising Fc or GST)
scFv: B7 scFv with Y55A, N56G, N57G
B10: SGN70-sp34.101HL (bispecific antibody, part only; not given: anti-CD70 Fab arm and Fc, not shown: another chain or arm of the molecule; a dimerising Fc or GST; large carriers)
scFv: B7 scFv with Y108A, V109A

Each binder was assayed against cynomolgus monkey CD3 E&D complex protein (Sino Biological Inc., CT032-00323H) (cynomolgus monkey) (UniProt Q95LI5) (assay: SPR, antigen on chip).
Sequence of cynomolgus monkey CD3 E&D complex protein (Sino Biological Inc., CT032-00323H) (cynomolgus monkey) (Q95LI5 22-117, chain 1 of 2): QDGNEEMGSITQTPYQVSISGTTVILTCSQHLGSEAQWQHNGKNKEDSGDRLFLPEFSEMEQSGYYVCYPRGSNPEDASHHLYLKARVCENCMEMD
Sequence of cynomolgus monkey CD3 E&D complex protein (Sino Biological Inc., CT032-00323H) (cynomolgus monkey) (Q95LI8 22-105, chain 2 of 2, further chain): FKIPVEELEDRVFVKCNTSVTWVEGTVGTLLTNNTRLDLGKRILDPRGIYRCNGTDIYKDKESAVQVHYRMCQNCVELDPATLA

Binder	Kd [nM]	koff [s⁻¹]	kon [M⁻¹ s⁻¹]
B1	141	0.0158	113000
B2	6490	0.749	115000
B3	14600	0.217	14900
B4	544	0.0466	85700
B5	5220	0.333	63800
B6	614	0.144	235000
B7	179	0.0302	169000
B8	633	0.195	308000
B9	5500	0.705	128000
B10	658	0.177	269000

The binders below were run against human CD3E&G complex (Sino Biological Inc., CT041-H0305H) (human) (UniProt P07766) (assay: SPR, antigen on chip).
Sequence of human CD3E&G complex (Sino Biological Inc., CT041-H0305H) (human) (P07766 23-126, chain 1 of 2): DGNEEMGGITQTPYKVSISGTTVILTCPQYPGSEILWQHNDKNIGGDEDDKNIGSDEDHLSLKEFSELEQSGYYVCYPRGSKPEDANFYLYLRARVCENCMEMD
Sequence of human CD3E&G complex (Sino Biological Inc., CT041-H0305H) (human) (P09693 23-116, chain 2 of 2, further chain): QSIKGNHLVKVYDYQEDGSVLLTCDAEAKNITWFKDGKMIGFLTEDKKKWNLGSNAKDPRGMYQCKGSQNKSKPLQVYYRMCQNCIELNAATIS

Binder	Kd [nM]	koff [s⁻¹]	kon [M⁻¹ s⁻¹]
B1	98	0.0146	150000
B2	4060	0.201	49700
B3	8060	0.993	123000
B4	335	0.107	321000
B5	3110	0.253	81300
B6	409	0.119	290000
B7	110	0.029	265000
B8	501	0.253	504000
B9	5200	0.416	79900
B10	480	0.167	347000
